In this test the target is T1, Vps4(E233Q), the ATP-locked form of Vps4 (S. cerevisiae, UniProt P52917 1-437, E233Q).
T1 sequence (looked up): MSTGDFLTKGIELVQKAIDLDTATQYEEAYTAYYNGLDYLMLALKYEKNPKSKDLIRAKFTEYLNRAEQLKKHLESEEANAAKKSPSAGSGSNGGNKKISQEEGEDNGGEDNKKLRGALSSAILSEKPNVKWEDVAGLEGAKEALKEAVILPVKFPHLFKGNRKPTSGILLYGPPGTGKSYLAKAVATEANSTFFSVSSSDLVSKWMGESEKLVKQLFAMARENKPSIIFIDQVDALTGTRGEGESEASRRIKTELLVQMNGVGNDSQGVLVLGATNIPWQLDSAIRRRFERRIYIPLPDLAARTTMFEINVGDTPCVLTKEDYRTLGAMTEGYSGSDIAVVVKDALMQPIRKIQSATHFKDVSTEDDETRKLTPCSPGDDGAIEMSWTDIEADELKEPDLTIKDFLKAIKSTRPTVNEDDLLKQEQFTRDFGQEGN
Put plainly: pull-down.

B1: GST-Did2(CT) (amino acids 113-204), the C-terminal half of Did2 (domain or fragment, S. cerevisiae, UniProt P69771 113-204, looked up)
chain: QQITMIMDKFEQQFEDLDTSVNVYEDMGVNSDAMLVDNDKVDELMSKVADENGMELKQSAKLDNVPEIKAKEVNVDDEKEDKLAQRLRALRG
With B1, the binding result is listed as “binds”.

For the origin of these results see article PMC3276697 (Traffic (Copenhagen, Denmark), 2012).
